B1: ^3FnIII, third type III domain of human fibronectin (residues 810–900) (domain or fragment)
chain: not shown
B2: ^2–3FnI, human fibronectin residues 93–182 (domain or fragment, UniProt P02751 93-182, looked up)
chain: AEETCFDKYTGNTYRVGDTYERPKDSMIWDCTCIGAGRGRISCTIANRCHEGGQSYKIGDTWRRPHETGGYMLECVCLGNGKGEWTCKPI

Assay in all cases: NMR titration
For test [1], the target named is T1, ^4–5FnI, human fibronectin residues 183–275 (human, UniProt P02751 183-275).
Test [2] concerns the target T1, ^4–5FnI, human fibronectin residues …. This is another data set of the same source.
The target in the next test is ^4–5FnI (R222A) (human, UniProt P02751 183-275, R222A).
^4–5FnI (R222A), sequence (P02751 183-275 R222A): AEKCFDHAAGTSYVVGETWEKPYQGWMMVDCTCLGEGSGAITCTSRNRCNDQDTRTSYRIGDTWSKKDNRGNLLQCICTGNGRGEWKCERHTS
The target of test [3] is B1.

Where two headings read alike, the source gives them in different places. Some results are limits rather than exact numbers.

T1 sequence (P02751 183-275): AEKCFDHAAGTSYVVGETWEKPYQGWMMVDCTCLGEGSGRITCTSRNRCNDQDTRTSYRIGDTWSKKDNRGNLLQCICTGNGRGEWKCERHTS

One may read the Kd as the free concentration of one partner at which half of the binding sites on the other are occupied at equilibrium, for simple one-to-one binding. A higher Kd goes with lower affinity. On to B1, for which the equilibrium dissociation constant (Kd) turned out to be 146 ± 9 µM in test [1] and 800 ± 46 µM in test [2]. For the same molecule, the “fold reduction of affinity against the wild-type interaction” value in the test with ^4–5FnI (R222A) was more than 20 fold.

The molecule B2 had a Kd in test [3] of 820 ± 70 µM.

The record behind these values is publication PMC2708863 (The Journal of Biological Chemistry, 2009).
